# In PMC10214526, “Semisynthetic LC3 Probes for Autophagy Pathways Reveal a Noncanonical LC3 Interacting Region Motif Crucial for the Enzymatic Activity of Human ATG3” (ACS Central Science, 2023):
# Biological target: GABARAP(ΔG116)–NHNH methyl-fumarate 2 (UniProt O95166)
# Assay: cross-linking assay with probe 2, Coomassie SDS-PAGE gel densitometry
# Conditions: GABARAP probe 2 15 μM; ATG3 C1 alanine variants 15 μM; 30 min; parent: est. 1.0; read off a plot
# Chain of GABARAP(ΔG116)–NHNH methyl-fumarate 2 (O95166 1-115, stated change not applied): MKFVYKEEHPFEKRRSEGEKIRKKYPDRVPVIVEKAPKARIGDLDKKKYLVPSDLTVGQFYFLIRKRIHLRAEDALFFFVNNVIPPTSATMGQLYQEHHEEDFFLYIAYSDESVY
# Chain of ATG3 C1, Q9NT62 D109A (Q9NT62 other isoform, or with tags, fused parts or gaps D109A): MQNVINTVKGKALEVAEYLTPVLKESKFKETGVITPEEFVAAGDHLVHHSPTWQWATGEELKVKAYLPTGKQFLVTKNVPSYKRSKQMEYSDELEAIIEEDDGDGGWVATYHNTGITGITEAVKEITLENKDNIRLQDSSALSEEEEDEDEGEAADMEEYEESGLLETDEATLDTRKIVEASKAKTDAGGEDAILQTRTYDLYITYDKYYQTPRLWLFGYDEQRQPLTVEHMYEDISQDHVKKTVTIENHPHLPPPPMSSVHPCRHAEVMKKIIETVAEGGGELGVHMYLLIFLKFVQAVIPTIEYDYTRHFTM
# Chain of ATG3 C1, Q9NT62 D104A (Q9NT62 whole entry D104A): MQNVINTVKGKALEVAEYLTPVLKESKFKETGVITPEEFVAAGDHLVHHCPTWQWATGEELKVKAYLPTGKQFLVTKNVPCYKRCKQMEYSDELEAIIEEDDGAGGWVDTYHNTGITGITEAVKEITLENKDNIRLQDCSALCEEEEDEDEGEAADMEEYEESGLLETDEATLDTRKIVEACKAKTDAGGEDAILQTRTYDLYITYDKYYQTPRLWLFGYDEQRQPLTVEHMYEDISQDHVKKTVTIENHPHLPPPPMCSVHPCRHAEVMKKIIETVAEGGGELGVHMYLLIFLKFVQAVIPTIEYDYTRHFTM
# Chain of ATG3 C1, Q9NT62 V108A (Q9NT62 other isoform, or with tags, fused parts or gaps V108A): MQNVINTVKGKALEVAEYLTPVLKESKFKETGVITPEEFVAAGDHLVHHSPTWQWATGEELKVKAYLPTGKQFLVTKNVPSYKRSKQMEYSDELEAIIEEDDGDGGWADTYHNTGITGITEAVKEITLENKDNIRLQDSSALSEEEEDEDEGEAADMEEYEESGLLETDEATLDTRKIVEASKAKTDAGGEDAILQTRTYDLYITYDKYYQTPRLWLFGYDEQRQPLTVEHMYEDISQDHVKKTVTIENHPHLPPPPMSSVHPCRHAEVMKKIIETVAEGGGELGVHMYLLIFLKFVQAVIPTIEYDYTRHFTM
# Chain of ATG3 C1, Q9NT62 Y111A (Q9NT62 whole entry Y111A): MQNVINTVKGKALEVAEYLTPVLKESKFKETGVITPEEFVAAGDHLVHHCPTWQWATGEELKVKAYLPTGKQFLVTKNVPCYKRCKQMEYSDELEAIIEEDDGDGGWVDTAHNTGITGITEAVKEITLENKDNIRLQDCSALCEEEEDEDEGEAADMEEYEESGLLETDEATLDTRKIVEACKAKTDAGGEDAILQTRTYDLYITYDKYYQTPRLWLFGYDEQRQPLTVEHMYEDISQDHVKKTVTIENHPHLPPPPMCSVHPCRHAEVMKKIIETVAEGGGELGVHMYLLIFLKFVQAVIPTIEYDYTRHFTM
# Chain of ATG3 C1, Q9NT62 W107A (Q9NT62 whole entry W107A): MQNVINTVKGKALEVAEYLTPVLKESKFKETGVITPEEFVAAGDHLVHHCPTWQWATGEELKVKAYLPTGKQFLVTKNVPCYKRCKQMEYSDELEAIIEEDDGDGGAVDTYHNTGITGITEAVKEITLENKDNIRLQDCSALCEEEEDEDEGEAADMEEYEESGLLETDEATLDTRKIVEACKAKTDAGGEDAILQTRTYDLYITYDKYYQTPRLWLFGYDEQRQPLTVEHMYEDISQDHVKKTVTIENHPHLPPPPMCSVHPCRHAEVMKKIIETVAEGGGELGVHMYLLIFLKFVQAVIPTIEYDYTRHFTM
# Chain of ATG3 C1, Q9NT62 T110A (Q9NT62 other isoform, or with tags, fused parts or gaps T110A): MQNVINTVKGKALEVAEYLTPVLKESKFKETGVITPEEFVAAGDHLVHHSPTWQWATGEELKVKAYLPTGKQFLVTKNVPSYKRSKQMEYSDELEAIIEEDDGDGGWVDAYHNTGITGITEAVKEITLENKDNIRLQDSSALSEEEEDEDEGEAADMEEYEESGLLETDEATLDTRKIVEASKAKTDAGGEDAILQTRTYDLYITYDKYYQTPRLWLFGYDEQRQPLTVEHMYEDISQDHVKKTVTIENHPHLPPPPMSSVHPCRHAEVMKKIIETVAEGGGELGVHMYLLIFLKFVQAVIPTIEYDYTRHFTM
# Chain of ATG3 C1, Q9NT62 I97A (Q9NT62 whole entry I97A): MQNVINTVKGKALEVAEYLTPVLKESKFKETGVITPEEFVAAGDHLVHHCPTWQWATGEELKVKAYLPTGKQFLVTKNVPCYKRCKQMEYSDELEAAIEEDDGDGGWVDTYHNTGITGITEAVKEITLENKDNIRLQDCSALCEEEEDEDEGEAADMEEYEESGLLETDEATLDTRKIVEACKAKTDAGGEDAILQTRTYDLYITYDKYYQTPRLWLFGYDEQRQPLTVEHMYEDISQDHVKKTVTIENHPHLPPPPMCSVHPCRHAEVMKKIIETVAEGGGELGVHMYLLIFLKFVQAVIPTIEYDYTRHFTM
# Chain of ATG3 C1, Q9NT62 E95A (Q9NT62 whole entry E95A): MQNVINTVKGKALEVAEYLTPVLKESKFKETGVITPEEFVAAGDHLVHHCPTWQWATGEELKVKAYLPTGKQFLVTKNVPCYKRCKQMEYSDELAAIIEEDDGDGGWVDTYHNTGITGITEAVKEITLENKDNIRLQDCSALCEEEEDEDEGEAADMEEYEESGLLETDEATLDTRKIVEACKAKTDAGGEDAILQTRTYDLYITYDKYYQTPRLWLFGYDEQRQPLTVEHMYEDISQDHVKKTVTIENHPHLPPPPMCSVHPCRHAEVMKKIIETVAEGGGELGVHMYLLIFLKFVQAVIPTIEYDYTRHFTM
# Chain of ATG3 C1, Q9NT62 D102A (Q9NT62 whole entry D102A): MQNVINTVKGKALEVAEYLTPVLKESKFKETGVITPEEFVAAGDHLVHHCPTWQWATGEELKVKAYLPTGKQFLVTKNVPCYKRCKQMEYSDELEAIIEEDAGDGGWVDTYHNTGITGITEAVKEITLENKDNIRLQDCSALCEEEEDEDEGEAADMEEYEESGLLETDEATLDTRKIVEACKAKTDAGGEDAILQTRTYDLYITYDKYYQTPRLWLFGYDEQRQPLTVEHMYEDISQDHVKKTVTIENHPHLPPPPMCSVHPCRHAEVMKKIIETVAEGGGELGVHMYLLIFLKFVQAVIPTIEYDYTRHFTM
# Chain of ATG3 C1, Q9NT62 E99A (Q9NT62 whole entry E99A): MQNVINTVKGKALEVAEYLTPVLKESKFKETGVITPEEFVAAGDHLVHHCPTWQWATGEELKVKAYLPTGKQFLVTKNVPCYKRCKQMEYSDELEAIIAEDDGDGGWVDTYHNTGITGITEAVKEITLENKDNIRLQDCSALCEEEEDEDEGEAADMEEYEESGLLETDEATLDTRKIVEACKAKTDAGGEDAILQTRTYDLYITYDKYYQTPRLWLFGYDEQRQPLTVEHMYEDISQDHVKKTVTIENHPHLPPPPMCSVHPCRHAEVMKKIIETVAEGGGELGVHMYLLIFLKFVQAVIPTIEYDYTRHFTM
# Chain of ATG3 C1, Q9NT62 D92A (Q9NT62 whole entry D92A): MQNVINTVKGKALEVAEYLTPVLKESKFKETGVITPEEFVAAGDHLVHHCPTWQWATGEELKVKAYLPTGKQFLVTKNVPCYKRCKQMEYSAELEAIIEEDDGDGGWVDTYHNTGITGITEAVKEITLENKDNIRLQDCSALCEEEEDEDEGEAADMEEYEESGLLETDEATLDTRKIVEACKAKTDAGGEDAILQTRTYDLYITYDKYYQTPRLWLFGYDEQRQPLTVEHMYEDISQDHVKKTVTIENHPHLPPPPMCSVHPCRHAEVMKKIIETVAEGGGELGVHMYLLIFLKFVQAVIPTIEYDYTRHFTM
# Chain of ATG3 C1, Q9NT62 I98A (Q9NT62 whole entry I98A): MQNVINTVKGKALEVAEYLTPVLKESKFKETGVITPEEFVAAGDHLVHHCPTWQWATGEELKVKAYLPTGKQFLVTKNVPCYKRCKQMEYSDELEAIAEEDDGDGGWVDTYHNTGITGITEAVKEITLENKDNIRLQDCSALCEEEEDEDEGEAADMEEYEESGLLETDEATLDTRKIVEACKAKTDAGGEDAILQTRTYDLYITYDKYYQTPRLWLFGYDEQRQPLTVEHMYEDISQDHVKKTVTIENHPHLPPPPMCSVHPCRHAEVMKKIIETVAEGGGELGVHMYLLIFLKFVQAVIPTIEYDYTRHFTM
# Chain of ATG3 C1, Q9NT62 Y90A (Q9NT62 whole entry Y90A): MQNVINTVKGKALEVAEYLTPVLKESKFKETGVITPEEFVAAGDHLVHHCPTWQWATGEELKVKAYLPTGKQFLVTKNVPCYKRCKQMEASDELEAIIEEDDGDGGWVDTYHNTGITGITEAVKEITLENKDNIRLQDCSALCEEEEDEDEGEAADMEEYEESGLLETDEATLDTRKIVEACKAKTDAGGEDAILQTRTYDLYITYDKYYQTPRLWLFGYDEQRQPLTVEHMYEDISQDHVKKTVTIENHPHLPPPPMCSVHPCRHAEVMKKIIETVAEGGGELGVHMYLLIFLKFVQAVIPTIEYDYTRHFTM
row,ratio to parent,Substance
1,0.38,"ATG3 C1, Q9NT62 D102A"
2,0.74,"ATG3 C1, Q9NT62 I98A"
3,0.52,"ATG3 C1, Q9NT62 E99A"
4,1,"ATG3 C1, Q9NT62 D92A"
5,0.31,"ATG3 C1, Q9NT62 I97A"
6,0.35,"ATG3 C1, Q9NT62 E95A"
7,0.61,"ATG3 C1, Q9NT62 Y90A"
8,0.17,"ATG3 C1, Q9NT62 W107A"

# Further lines, the substance ahead of its results:
row,Substance,ratio to parent
1,"ATG3 C1, Q9NT62 D104A",0.55
2,"ATG3 C1, Q9NT62 D109A",1.4
3,"ATG3 C1, Q9NT62 V108A",0.38
4,"ATG3 C1, Q9NT62 T110A",0.8
5,"ATG3 C1, Q9NT62 Y111A",0.69
